From paper PMC3788737, “Structural Insights into Neutrophilic Migration Revealed by the Crystal Structure of the Chemokine Receptor CXCR2 in Complex with the First PDZ Domain of NHERF1” (PLoS ONE, 2013) come the findings set out here.

Series [1] deals with the molecule itself. Put plainly: crystal structure; chimeric PDZ1(11-94)-TSTTL, hanging drop, 100 mM sodium acetate pH 4.6, 2.7 M sodium chloride, 20 °C; 1.16 Å; the tail of one molecule binds the neighbouring PDZ1.
Series [2] addresses T1, NHERF1 PDZ1 domain (residues 11-94) (human, UniProt O14745 11-94).
T1 construct: Na+/H+ exchanger regulatory factor-1 (NHERF1), human, PDZ1 domain, residues 11-94; The PDZ1 part of the chimera m1, written on its own for the pair PDZ1 and CXCR2 peptide of the crystal structure; also called first PDZ domain of NHERF1; source: E. coli BL21 Codon Plus (DE3), purified, as part of the chimeric protein PDZ1-TSTTL; not shown: His6, N-terminal, cleaved; SUMO, N-terminal, cleaved
T1 sequence (looked up): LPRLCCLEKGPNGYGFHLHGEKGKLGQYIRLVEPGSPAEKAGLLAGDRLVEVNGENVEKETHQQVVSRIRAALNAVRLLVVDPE
Described as above. As to conditions: both partners purified.

B1: chimeric protein of the NHERF1 PDZ1 domain (residues 11-94) fused at its C-terminus to the CXCR2 residues 356-360 (TSTTL) (other, human)
chain: LPRLCCLEKGPNGYGFHLHGEKGKLGQYIRLVEPGSPAEKAGLLAGDRLVEVNGENVEKETHQQVVSRIRAALNAVRLLVVDPETSTTL
notes: Na+/H+ exchanger regulatory factor-1 (NHERF1), human, PDZ1 domain, residues 11-94; C-terminal extension that corresponds to residues 356-360 of human CXCR2; one molecule in the asymmetric unit; also called PDZ1-CXCR2; not shown: His6, N-terminal, cleaved; SUMO, N-terminal, cleaved
With B1, in series [1], the binding result is listed as “binds”.

B2: CXCR2 C-terminal peptide TSTTL (residues 356-360) (peptide)
peptide: TSTTL
notes: Interleukin 8 receptor, beta (CXCR2), human, residues 356-360 (C-terminus); The CXCR2 part of the chimera m1 (joined to residue 94 of PDZ1), written on its own for the pair of the crystal structure; also called CXCR2 pentapeptide; source: E. coli BL21 Codon Plus (DE3), purified, as the C-terminal extension of the chimeric protein PDZ1-TSTTL
With B2, the binding result in series [2] is “binds”.
